Data from paper PMC4216083.

Target: Toll-like receptor 4 (human (endogenous in monocyte-derived DCs)) (UniProt O00206)
UniProt O00206, sequence (O00206 24-839): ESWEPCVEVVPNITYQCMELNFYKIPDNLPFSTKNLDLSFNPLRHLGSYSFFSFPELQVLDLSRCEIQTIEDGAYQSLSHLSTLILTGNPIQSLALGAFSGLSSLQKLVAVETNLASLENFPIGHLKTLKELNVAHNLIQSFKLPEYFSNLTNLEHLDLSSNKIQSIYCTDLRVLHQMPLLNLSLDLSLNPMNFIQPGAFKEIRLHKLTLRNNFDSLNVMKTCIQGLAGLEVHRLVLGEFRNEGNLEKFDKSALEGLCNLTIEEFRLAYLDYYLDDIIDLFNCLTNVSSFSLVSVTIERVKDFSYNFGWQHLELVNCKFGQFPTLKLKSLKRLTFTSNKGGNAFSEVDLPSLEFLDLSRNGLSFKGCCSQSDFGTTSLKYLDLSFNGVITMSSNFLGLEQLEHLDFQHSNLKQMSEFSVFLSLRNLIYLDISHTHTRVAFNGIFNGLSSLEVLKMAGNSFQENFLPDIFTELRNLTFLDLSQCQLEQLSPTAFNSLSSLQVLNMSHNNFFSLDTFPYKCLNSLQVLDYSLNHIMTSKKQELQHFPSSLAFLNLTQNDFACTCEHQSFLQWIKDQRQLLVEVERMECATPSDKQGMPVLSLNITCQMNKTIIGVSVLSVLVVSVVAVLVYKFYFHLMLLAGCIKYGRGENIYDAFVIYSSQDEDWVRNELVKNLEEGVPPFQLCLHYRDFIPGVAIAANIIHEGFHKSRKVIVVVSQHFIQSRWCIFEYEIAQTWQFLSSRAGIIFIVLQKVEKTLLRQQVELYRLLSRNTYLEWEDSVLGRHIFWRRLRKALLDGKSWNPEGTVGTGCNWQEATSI

Substance: Enterovirus 71 virus-like particles (complex)
- decrease of EV71 VLP (10 µg/mL)-induced IL-10 production by human DCs after pre-incubation with anti-TLR4 mAb (HTA125, 20 µg/mL), ELISA: 41%
- decrease of EV71 VLP (10 µg/mL)-induced IL-12 p40 production by human DCs after pre-incubation with anti-TLR4 mAb (HTA125, 20 µg/mL), ELISA: 48%
- decrease of EV71 VLP (10 µg/mL)-induced IL-12 p70 production by human DCs after pre-incubation with anti-TLR4 mAb (HTA125, 20 µg/mL), ELISA: 68%
